Laboratory results: PMC3575409, “Identification of a Novel Protein-Protein Interaction Motif Mediating Interaction of GPCR-Associated Sorting Proteins with G Protein-Coupled Receptors” (PLoS ONE, 2013)

Target: full-length ADRB2 (β2 adrenergic receptor)
Experiment: SPR saturation binding, ADRB2
Design: species or system human
Protocol: The human ADRB2 and CNR2 receptors were produced using the P. pastoris expression system as previously described, [16]. After methanol-induced receptor expression, cells were washed with PBS pH 7.0 and resuspended in ice-cold buffer A (50 mM Tris-HCl pH 7.4, 500 mM NaCl, 10% glycerol, 5 mM EDTA, 1 mM PMSF, 2 mM DDT). Cells were then lysed with two cycles of 20 s shaking and 20 s cooling on ice using 0.5 mm glass beads in a FastPrep 24 device. Unbroken cells and cell debris were removed by centrifugation (3000 g, 5 min, 4°C) and the membrane fraction from the supernatant was pelleted by ultracentrifugation (100,000 g, 45 min, 4°C). […] Finally membranes were resuspended in buffer B and quantified with the bicinchoninic acid (BCA) method (Pierce).
Approximately 150 mg membrane proteins were extracted by 5 min incubation at room temperature in buffer C (50 mM Tris-HCl pH 7.4, 500 mM NaCl, 10% glycerol, 1 mM PMSF, 2 mM DTT, 50 mM imidazole, 1% (w/v) DDM, 0.1% (w/v) CHS). […] Imidazole was removed from the eluted fraction using a HiTrap 5 ml desalting column (GE Healthcare), purified proteins were quantified using the BCA assay (Pierce) and receptor integrity was analyzed by SDS-PAGE. […]

B1: central domain of GASP-1: central portion of GASP-1 (AA 380 to 1073) that contains 19 GASP motif (protein)
chain: MTKEEAKTKARARAKQEARSEEEALIGTWFWATDESSMADEASIESSLQVEDESIIGSWFWTEEEASMGTGASSKSRPRTDGERIGDSLFGAREKTSMKTGAEATSESILAADDEQVIIGSWFWAGEEVNQEAEEETIFGSWFWVIDAASVESGVGVSCESRTRSEEEEVIGPWFWSGEQVDIEAGIGEEARPGAEEETIFGSWFWAENQTYMDCRAETSCDTMQGAEEEEPIIGSWFWTRVEACVEGDVNSKSSLEDKEEAMIPCFGAKEEVSMKHGTGVRCRFMAGAEETNNKSCFWAEKEPCMYPAGGGSWKSRPEEEEDIVNSWFWSRKYTKPEAIIGSWLWATEESNIDGTGEKAKLLTEEETIINSWFWKEDEAISEATDREESRPEAEEGDIIGSWFWAGEEDRLEPAAETREEDRLAAEKEGIVGSWFGAREETIRREAGSCSKSSPKAEEEEVIIGSWFWEEEASPEAVAGVGFESKPGTEEEEITVGSWFWPEEEASIQAGSQAVEEMESETEEETIFGSWFWDGKEVSEEAGPCCVSKPEDDEEMIVESWFWSRDKAIKETGTVATCESKPENEEGAIVGSWFEAEDEVDNRTDNGSNCGSRTLADEDEAIVGSWFWAGDEAHFESNPSPVFRAICRSTCSVEQEPDPSRRPQSWEEVTVQFKPGPWGRVGFPSISPFRFPKE
modifications: left off: GST, N-terminal, kept
notes: central portion of GASP-1 (AA 380 to 1073) that contains 19 GASP motif
- kinetics of the interaction: very stable and had a slow association rate
